Results on one substance are retold here after patent US20250383346A1.

This test deals with Her2 extracellular domain antigen (ACRO Biosystems) (UniProt P04626). The test is described as follows: SPR (Carterra LSA), Fab captured from lysate on Fab Kappa capture reagent, Her2 ECD in solution.

The substance five standards of trastuzumab Fab registered a Kd of 0.1 µM.
